Laboratory results published in PMC10394066, “Polymorphic amyloid nanostructures of hormone peptides involved in glucose homeostasis display reversible amyloid formation” (Nature Communications, 2023).

Molecular target: the molecule itself
Assay: FTIR; 6 mM peptide in water, pH adjusted from 7.2 to 4.2; amide I band 1625–1630 cm^−1; bio-ATR cell

B1: APR^ex-4 hexapeptide LFIEWL (aggregation-prone region of exendin-4) (peptide)
peptide: LFIEWL
notes: aggregation-prone hexapeptide segment of the non-mammalian exendin-4 (also of exendin-3); free termini; also called LFIEWL (exendin-4); source: synthetic peptide (flow solid-phase synthesis, Fmoc/tBu; RP-HPLC purified)
B1: binds.
